Values of other authors, collected in PMC3674867.

Molecular target: caspase-3 (Homo sapiens) (UniProt P42574)
Experiment: solid phase binding assay

UniProt P42574, sequence (P42574 176-277): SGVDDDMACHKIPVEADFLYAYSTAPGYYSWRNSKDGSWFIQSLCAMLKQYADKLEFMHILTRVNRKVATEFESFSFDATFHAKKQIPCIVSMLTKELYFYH

- Kd: 3 nM
Substance: PAI-1 (from UniProt P05121)
